Results published in patent publication US20120225824A1.

Biological target: MIS type II receptor (MISRII) (human) (UniProt Q16671)
Assay: cell-based or functional assay

Chain of UniProt Q16671 (Q16671 18-573): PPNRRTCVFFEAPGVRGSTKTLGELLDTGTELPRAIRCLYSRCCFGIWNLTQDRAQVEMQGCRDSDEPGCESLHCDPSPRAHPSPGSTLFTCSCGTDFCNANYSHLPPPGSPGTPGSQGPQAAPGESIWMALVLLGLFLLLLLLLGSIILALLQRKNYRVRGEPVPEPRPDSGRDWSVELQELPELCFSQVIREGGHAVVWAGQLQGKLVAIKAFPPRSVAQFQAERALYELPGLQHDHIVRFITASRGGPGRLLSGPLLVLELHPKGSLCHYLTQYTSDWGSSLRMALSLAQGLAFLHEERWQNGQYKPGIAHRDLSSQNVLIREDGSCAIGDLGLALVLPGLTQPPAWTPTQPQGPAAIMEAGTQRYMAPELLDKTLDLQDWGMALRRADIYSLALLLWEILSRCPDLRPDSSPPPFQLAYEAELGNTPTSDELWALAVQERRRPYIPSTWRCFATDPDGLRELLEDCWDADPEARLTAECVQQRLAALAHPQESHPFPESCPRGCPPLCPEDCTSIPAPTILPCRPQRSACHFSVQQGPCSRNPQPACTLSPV

decrease in cell proliferation (cultured endometrial cells transiently transfected with an MIS protein expression construct) [%]	Substance	decrease in viable cells (cultured endometrial cells, rhMIS 100 ng/mL, 72 hours) [%]
	rhMIS (R&D Systems, Minneapolis, Minn.) (from UniProt P03971 452-560) (ligand)	14
8	MIS over-expressed from an MIS protein expression construct (ligand)	
